Measured values taken from article PMC3319311 (Nature, 2012).
Where a chain is given by its changes, count along the chain named. In names and notes the source's numbering stands. Each block holds one binder with its values, some of them ahead of it.

Tests used:
[1] = biological target: hOTUB1 H217W (human, UniProt Q96FW1 1-271, H217W); assay: fluorescence polarisation
[2] = biological target: hOTUB1 F193R (human, UniProt Q96FW1 1-271, F193R); assay: fluorescence polarisation
[3] = biological target: T1, Caenorhabditis elegans OTUB1 (Caenorhabditis elegans, UniProt Q9XVR6); assay: fluorescence polarisation
T1 sequence: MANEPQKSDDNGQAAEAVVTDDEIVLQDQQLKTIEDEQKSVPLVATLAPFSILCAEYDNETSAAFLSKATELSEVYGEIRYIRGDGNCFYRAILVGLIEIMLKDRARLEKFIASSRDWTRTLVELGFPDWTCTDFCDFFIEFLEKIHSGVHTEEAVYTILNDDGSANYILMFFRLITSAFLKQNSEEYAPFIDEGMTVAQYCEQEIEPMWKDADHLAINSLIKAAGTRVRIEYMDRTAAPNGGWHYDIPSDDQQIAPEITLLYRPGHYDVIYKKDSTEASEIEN

[4] = biological target: hOTUB1 F193W (human, UniProt Q96FW1 1-271, F193W); assay: fluorescence polarisation
Chain of hOTUB1 F193W (Q96FW1 whole entry F193W, the tested form may be a part): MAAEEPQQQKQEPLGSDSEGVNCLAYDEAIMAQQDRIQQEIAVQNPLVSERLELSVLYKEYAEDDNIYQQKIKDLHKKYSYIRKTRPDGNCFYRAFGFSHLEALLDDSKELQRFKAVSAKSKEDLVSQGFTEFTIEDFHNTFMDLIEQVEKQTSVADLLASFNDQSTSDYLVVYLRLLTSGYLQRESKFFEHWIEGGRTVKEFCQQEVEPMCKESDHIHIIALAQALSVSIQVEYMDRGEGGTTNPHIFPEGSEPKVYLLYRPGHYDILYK

[5] = biological target: T2, human OTUB1 (OTU domain-containing ubiquitin aldehyde-binding protein 1) (human, UniProt Q96FW1 1-271); assay: fluorescence polarisation
T2 sequence (Q96FW1 whole entry, the tested form may be a part): as the sequence (Q96FW1 whole entry F193W, the tested form may be a part) above, with W193F counted along it

[6] = biological target: hOTUB1Δ15 (human, UniProt Q96FW1 16-271); assay: pull-down
Chain of hOTUB1Δ15 (Q96FW1 16-271, stated change not applied): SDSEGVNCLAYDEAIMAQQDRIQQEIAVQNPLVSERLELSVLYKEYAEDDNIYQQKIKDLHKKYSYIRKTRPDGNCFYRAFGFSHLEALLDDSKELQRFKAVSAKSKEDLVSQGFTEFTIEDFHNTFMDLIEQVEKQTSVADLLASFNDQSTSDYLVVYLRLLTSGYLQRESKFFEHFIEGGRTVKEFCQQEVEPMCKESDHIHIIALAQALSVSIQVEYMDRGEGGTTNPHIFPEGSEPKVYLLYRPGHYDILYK

[7] = biological target: His6-tagged human OTUB1 (human, UniProt Q96FW1 1-271); assay: pull-down
Chain of His6-tagged human OTUB1 (Q96FW1 whole entry, the tested form may be a part): as the sequence (Q96FW1 whole entry F193W, the tested form may be a part) above, with W193F counted along it

[8] = biological target: T2, human OTUB1 (OTU domain-containing …); assay: SEC

Chain of hOTUB1 F193R (Q96FW1 whole entry F193R): as the sequence (Q96FW1 whole entry F193W, the tested form may be a part) above, with W193R counted along it
Chain of hOTUB1 H217W (Q96FW1 whole entry H217W): as the sequence (Q96FW1 whole entry F193W, the tested form may be a part) above, with W193F, H217W counted along it

- binding result [1]: binds
- binding result [2]: binds
- Kd [3]: 58.5 µM
- binding result [4]: binds
- Kd [5]: 7.04 µM
B1: fluorescein-labeled human UBC13 (enzyme)
chain: MAGLPRRIIKETQRLLAEPVPGIKAEPDESNARYFHVVIAGPQDSPFEGGTFKLELFLPEEYPMAAPKVRFMTKIYHPNVDKLGRICLDILKDKWSPALQIRTVLLSIQALLSAPNPDDPLANDVAEQWKTNEAQAIETARAWTRLYAMNNI
modifications: labeled with fluorescein-5-maleimide

- binding result [6]: binds
- binding result [7]: binds
B2: UBC13^C87S~Ub oxyester (complex)
chain 1: B1 chain with C87S
chain 2: […]

- binding result [8]: binds
B3: human UBC13 (UBE2N) (enzyme)
chain: B1 chain
